B1: Twister Ribozyme (parent)
chain: AACACUGCCAAUGCCGGUCCCAAGCCCGGAUAAAAGUGGAGGGGGCGG

Variants of: B1
Assay: self-cleavage, relative activity (ratio to wild type); higher = more cleavage; co-transcriptional

| Variant | self-cleavage |
| --- | --- |
| AACACUGCCAAUGCCGGUCCCAAGCCCGGAUAAAAGGGGCGGGGGCGG [U37G A40C] | 0.163 |
| AACACUGCCAAUGCCGGUCCCAAGCCCGGAUAAAAGUGGAGGUGGCGG [G43U] | 0.537 |
| AACACUGCCAAUGUCGGUCCCAAGCCCGGAUAAAAGUGGAGGGGGCGA [C14U G48A] | 1.1 |
| AACACUGCCAUUGCCGGUCCCAAGCCCGGAUAUAAGUGGAGGGGGCGG [A11U A33U] | 1.03 |
| AACACUGCGAAUGCCGGUCCCAAGCCCGGAUAAAAGUGGAGGGGUCGG [C9G G45U] | 0.205 |
| AUCACUGCCAAUGCCGGUCCCAAGCCCGGAUAAAAGUGAAGGGGGCGG [A2U G39A] | 0.12 |
| ACCACUGCCAAUACCGGUCCCAAGCCCGGAUAAAAGUGGAGGGGGCGG [A2C G13A] | 0.0468 |
| AACACUGCCAAUGCCGGUCCCAAGCCCGGAUAAAAGUGGAGGCGUCGG [G43C G45U] | 0.275 |
| AACACUACCAAUGCCGGUCCCAAGGCCGGAUAAAAGUGGAGGGGGCGG [G7A C25G] | 0.237 |
| AACAGUGCCAAUGCCGGUCCCAAGCCCGGAUAAAAGUGGAGGUGGCGG [C5G G43U] | 0.136 |
| AACACUGCCAAUGCCGGUCCCAAGCCAGGAUAAAAGUGGAGUGGGCGG [C27A G42U] | 0.113 |
| AACACUGCCAAUUCCGGUCCCAAGGCCGGAUAAAAGUGGAGGGGGCGG [G13U C25G] | 0.0724 |
| AACACUGCCAAUGCCGGUCCCACGCCCGUAUAAAAGUGGAGGGGGCGG [A23C G29U] | 0.124 |
| AACACUGCCAAUGCUGGUCCCAAGCCCGGAUAAAAGUGAAGGGGGCGG [C15U G39A] | 0.314 |
| AACACUGCGAAUGCCGGUCCCAAGCGCGGAUAAAAGUGGAGGGGGCGG [C9G C26G] | 0.083 |
| AACACUGCCGAUGCCGGUCCCAAGCCCGGAUAAAAGUGGAGGGGGCGU [A10G G48U] | 1.15 |
| AACACUGCCAAUGCCGGUCCCAACCCCGGAAAAAAGUGGAGGGGGCGG [G24C U31A] | 0.0517 |
| AAAACUGCCAAUGCCGGUCCCAAGCCCGGAUAAAAGUGGAGGGGGCGA [C3A G48A] | 0.277 |
| AACACUACCAAUGCCGGUCCCAAGCCCGGAUAAAAGUGGAGGGGGCUG [G7A G47U] | 0.19 |
| AACACUGCGAAUGCCCGUCCCAAGCCCGGAUAAAAGUGGAGGGGGCGG [C9G G16C] | 0.0741 |
| AACACUGCCAAUGCCGGUCCCAAGCCCGCAUAAAAGUGGAGGGGCCGG [G29C G45C] | 0.211 |
| AACACUGCUAAUGCCGGUCCCAAGCCCGGCUAAAAGUGGAGGGGGCGG [C9U A30C] | 0.526 |
| AACACUGCCAAUGCCGGUCCCAAACCCGGAUAAAAGUGAAGGGGGCGG [G24A G39A] | 0.106 |
| GACACUGCCAAUGCCGGUCCCAAGCGCGGAUAAAAGUGGAGGGGGCGG [A1G C26G] | 0.334 |
| GACACUGCCAAUGCCGGUCCCAAGCACGGAUAAAAGUGGAGGGGGCGG [A1G C26A] | 0.244 |
| AACACGGCCAAUGCCGGUCCCAAGCCCGGAUAAAAGUGGAGGGUGCGG [U6G G44U] | 0.242 |
| AACACUGCCAAUGCCGGUCCCAACCCCGGAUAUAAGUGGAGGGGGCGG [G24C A33U] | 0.0768 |

| Variant | self-cleavage |
| --- | --- |
| AAUACUGCCAAUGCCGGUGCCAAGCCCGGAUAAAAGUGGAGGGGGCGG [C3U C19G] | 0.106 |
| AACACUGCCAAUGCCGGUCCUAAGCCGGGAUAAAAGUGGAGGGGGCGG [C21U C27G] | 0.0722 |
| AACACUGGCAAUGCCGGUCCCAAGCCCGGAUAACAGUGGAGGGGGCGG [C8G A34C] | 0.121 |
| AACACUACCAAUGCCGGUCCCAAGCGCGGAUAAAAGUGGAGGGGGCGG [G7A C26G] | 0.0601 |
| AACGCUGCCACUGCCGGUCCCAAGCCCGGAUAAAAGUGGAGGGGGCGG [A4G A11C] | 0.663 |
| AACAUUGCCAAUGCCGGUCCCAAGCCCGGAUAAGAGUGGAGGGGGCGG [C5U A34G] | 0.511 |
| AAUACUGCCAAUGCCGGUCCCAAGCCCGGAUAAAAAUGGAGGGGGCGG [C3U G36A] | 0.115 |
| AACAGUGCCAAUGCCGGUCUCAAGCCCGGAUAAAAGUGGAGGGGGCGG [C5G C20U] | 0.65 |
| AACACUGCCAACGCCGGUCCCAAGCCCGGAUAAACGUGGAGGGGGCGG [U12C A35C] | 1.08 |
| AACACUGCCAAUGCCGGUCCCAAGCCCGGAUAAAAUUGGAUGGGGCGG [G36U G41U] | 0.0887 |
| AGCACUGCCAAUGCCGGUCCCAAGCCCGGAUAAAAGAGGAGGGGGCGG [A2G U37A] | 0.142 |
| AACGCUGCCAAUGCCGGUCCCAAGCCCGGAUAAAAGUGGAGGGGCCGG [A4G G45C] | 0.294 |
| AACACUGCCAAUGCCGGUCUCAAGCCCGGAUAAAAGUGGAGGGGGAGG [C20U C46A] | 0.784 |
| AACACUGCCAAUGCCGGUCCCAAGCCCGGAUAAAAGCGGAGGGGGCGU [U37C G48U] | 0.881 |
| AACACUGCCAAGGCCGGUCACAAGCCCGGAUAAAAGUGGAGGGGGCGG [U12G C20A] | 0.314 |
| AACACUGCCAAUGCCGGUCCCAAGCCCGGAUAAAAGUGGAGGGUGUGG [G44U C46U] | 1.02 |
| AACACUGCCUAUGCCGGUCCCAAGCCCGGAUAAAAUUGGAGGGGGCGG [A10U G36U] | 0.716 |
| AACACUGCCAAUGCCGGUCCCAAGUCCGGAUAAAAGUGAAGGGGGCGG [C25U G39A] | 0.141 |
| GAGACUGCCAAUGCCGGUCCCAAGCCCGGAUAAAAGUGGAGGGGGCGG [A1G C3G] | 0.274 |
| AACACUGCCAAUGCCGGUUCCAAGCCCGGAUAAAAGUGGAGGGGGAGG [C19U C46A] | 0.853 |
| AACACUUCCAAUGCCGGUCCCAAGCCCGGAUAAAGGUGGAGGGGGCGG [G7U A35G] | 0.0839 |
| AACACUGCCAAUGCCGGUCCGAAGCCCGGAUAAAAGUGGAGGGGGCCG [C21G G47C] | 0.0639 |
| AACACUGCCAAUGCUGGUCCCAAGCCCGGAUAAAAGUGGACGGGGCGG [C15U G41C] | 0.209 |
| AACACUGCCAAUGCCGGUCGCAAGCCGGGAUAAAAGUGGAGGGGGCGG [C20G C27G] | 0.0793 |
| AACACUGCCAAUGCCGGUCCCAAGCCCGGAUAAACGUGCAGGGGGCGG [A35C G39C] | 0.153 |
| AACACUGCCAAUGUCGGUCCCAAGCCCGGAUAAAAGUGGAAGGGGCGG [C14U G41A] | 0.698 |
| AACACUGCCAAUGCCGGUCCCAAGCCCGGAUAAAAGUGUAGGGGGCGG [G39U] | 0.232 |
